# B1: T-15 (ssRNA)
# RNA: GGGAGGACGAUGCGGAUGUUGGCAGCAGGGUCCGACGGCGUAACCUUGCCAGCUGCAGACGACUCGCCCGA
# modifications: 2'-NH2 on all C and U
# B2: H-42 (ssRNA)
# RNA: GGGAGGACGAUGCGGACAAGGGCCUGAGUGUGGAGGGCACGUGGAGGGGACUGGCCAGACGACUCGCCCGA
# modifications: 2'-NH2 on all C and U
# What was measured:
# [1] = target: VEGF (vascular endothelial growth factor) (Homo sapiens, UniProt P15692-4 P15692-4:27-191); assay: ELONA; 95% CI 0.19-0.33 nM, N=6; VEGF titration in sandwich with capture antibody, ligand 400 nM as detector, room temperature; 0.236 nM in Superblock/TBS-Tween variant; conditions: tags: R&D Systems recombinant human VEGF; chain copies: 2; label: 3'-biotin
# Chain of VEGF (vascular endothelial growth factor) (P15692 other isoform, or with tags, fused parts or gaps): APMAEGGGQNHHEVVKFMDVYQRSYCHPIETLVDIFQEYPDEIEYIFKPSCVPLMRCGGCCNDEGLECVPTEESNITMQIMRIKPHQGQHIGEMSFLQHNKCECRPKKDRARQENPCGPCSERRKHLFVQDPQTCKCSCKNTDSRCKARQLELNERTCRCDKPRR
# [2] = target: hTSH (human thyroid stimulating hormone) (Homo sapiens, UniProt P01215;P01222 P01215:25-116,P01222:21-132); assay: ELONA; RNA as capture molecule in TEM buffer; signals analogous to commercial ELISA; conditions: tags: Becton Dickinson, 9 IU/mg, Mr 27,700; label: 5'-biotin (GDP-beta-S, iodoacetyl-LC-biotin)
# Chain of hTSH (human thyroid stimulating hormone) (P01215 25-116, chain 1 of 2): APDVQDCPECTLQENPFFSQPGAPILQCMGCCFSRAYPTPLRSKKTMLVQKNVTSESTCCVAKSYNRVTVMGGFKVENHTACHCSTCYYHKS
# Chain of hTSH (human thyroid stimulating hormone) (P01222 21-132, chain 2 of 2): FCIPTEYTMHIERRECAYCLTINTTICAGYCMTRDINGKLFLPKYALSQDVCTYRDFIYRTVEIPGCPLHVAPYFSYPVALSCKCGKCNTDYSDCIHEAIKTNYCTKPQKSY
# [3] = target: hCG (human chorionic gonadotropin) (Homo sapiens, UniProt P01215;P0DN86 P01215:25-116,P0DN86:21-165); assay: ELONA; RNA as capture molecule in TEM buffer; detection down to 200 mIU (340 pM); conditions: tags: Vitro Diagnostics, 14,000 IU/mg, Mr 42,000; label: 5'-biotin (GDP-beta-S, iodoacetyl-LC-biotin)
# Chain of hCG (human chorionic gonadotropin) (P01215 25-116, chain 1 of 2, other chains not shown): as the sequence (P01215 25-116, chain 1 of 2) above
binder,measurement,setting,value
"ACCCUGAUGGUAGACGCCGGG (ssRNA, 2'-NH2 pyrimidines) [VEGF-NeXamer]",EC50,[1],250 pM
B1,binding result,[2],binds
B2,binding result,[3],binds

# Reference: patent US5789163, “Enzyme linked oligonucleotide assays (ELONAS)” (NeXstar Pharmaceuticals, Inc.)
